Assay results: US20110118447A1
Changes are numbered by the printed parent chain. Names may count otherwise.

B1: C5A (XPA23) VH S30R (antibody, V domains shown)
VH: EVQLLESGGGLVQPGGSLRLSCAASGFTFRKYFMFWVRQAPGKGLEWVSVISPSGGMTRYADSVKGRFTISRDNSKNTLYLQMNSLRAEDTAVYYCARVGYGGNSDYWGQGTLVTVSS
VL: DIQMTQSPSSVSASVGDRLTIICRASQDINRWLAWYQQTPGNAPKLLIHSATSLQSGVPSRFSGSGSGTDFTLTINSLQPEDFATYYCQQADSFPLTFGGGTKVEIK
B2: C5A (XPA23) VH Y32E (antibody, V domains shown)
VH: B1 VH with R30S, Y32E
VL: B1 VL
B3: C5A (XPA23) VL P95A (antibody, V domains shown)
VH: B1 VH with R30S
VL: B1 VL with P95A
B4: C5A (XPA23) VH S30N (antibody, V domains shown)
VH: B1 VH with R30N
VL: B1 VL
B5: C5A (XPA23) VL F94L (antibody, V domains shown)
VH: B1 VH with R30S
VL: B1 VL with F94L
B6: C5A (XPA23) VH Y32T (antibody, V domains shown)
VH: B1 VH with R30S, Y32T
VL: B1 VL
B7: C5A (XPA23) VL F94I (antibody, V domains shown)
VH: B1 VH with R30S
VL: B1 VL with F94I
B8: C5A (XPA23) VH F33D (antibody, V domains shown)
VH: B1 VH with R30S, F33D
VL: B1 VL
B9: C5A (XPA23) VL S93L (antibody, V domains shown)
VH: B1 VH with R30S
VL: B1 VL with S93L
B10: C5A (XPA23) VL F94V (antibody, V domains shown)
VH: B1 VH with R30S
VL: B1 VL with F94V
B11: C5A (XPA23) VH Y32S (antibody, V domains shown)
VH: B1 VH with R30S, Y32S
VL: B1 VL
B12: C5A (XPA23) VH S30T (antibody, V domains shown)
VH: B1 VH with R30T
VL: B1 VL
B13: C5A (XPA23) VL L96F (antibody, V domains shown)
VH: B1 VH with R30S
VL: B1 VL with L96F
B14: C5A (XPA23) VH F33Q (antibody, V domains shown)
VH: B1 VH with R30S, F33Q
VL: B1 VL
B15: C5A (XPA23) VH K31V (antibody, V domains shown)
VH: B1 VH with R30S, K31V
VL: B1 VL
B16: C5A (XPA23) VH F33N (antibody, V domains shown)
VH: B1 VH with R30S, F33N
VL: B1 VL
B17: C5A (XPA23) VH S30L (antibody, V domains shown)
VH: B1 VH with R30L
VL: B1 VL
B18: C5A (XPA23) VH F33T (antibody, V domains shown)
VH: B1 VH with R30S, F33T
VL: B1 VL
B19: C5A (XPA23) VL S93W (antibody, V domains shown)
VH: B1 VH with R30S
VL: B1 VL with S93W
B20: C5A (XPA23) VH K31D (antibody, V domains shown)
VH: B1 VH with R30S, K31D
VL: B1 VL
B21: C5A (XPA23) VH F33S (antibody, V domains shown)
VH: B1 VH with R30S, F33S
VL: B1 VL
B22: C5A (XPA23) VL P95F (antibody, V domains shown)
VH: B1 VH with R30S
VL: B1 VL with P95F
B23: C5A (XPA23) VH K31H (antibody, V domains shown)
VH: B1 VH with R30S, K31H
VL: B1 VL
B24: C5A (XPA23) VH K31I (antibody, V domains shown)
VH: B1 VH with R30S, K31I
VL: B1 VL
B25: C5A (XPA23) VH S30W (antibody, V domains shown)
VH: B1 VH with R30W
VL: B1 VL
B26: C5A (XPA23) VL F94P (antibody, V domains shown)
VH: B1 VH with R30S
VL: B1 VL with F94P
B27: C5A (XPA23) VH F33Y (antibody, V domains shown)
VH: B1 VH with R30S, F33Y
VL: B1 VL
B28: C5A (XPA23) VH K31R (antibody, V domains shown)
VH: B1 VH with R30S, K31R
VL: B1 VL
B29: C5A (XPA23) VL L96A (antibody, V domains shown)
VH: B1 VH with R30S
VL: B1 VL with L96A
B30: C5A (XPA23) VH S30I (antibody, V domains shown)
VH: B1 VH with R30I
VL: B1 VL
B31: C5A (XPA23) VH K31Y (antibody, V domains shown)
VH: B1 VH with R30S, K31Y
VL: B1 VL
B32: C5A (XPA23) VH Y32H (antibody, V domains shown)
VH: B1 VH with R30S, Y32H
VL: B1 VL
B33: C5A (XPA23) VH Y32D (antibody, V domains shown)
VH: B1 VH with R30S, Y32D
VL: B1 VL
B34: C5A (XPA23) VL L96I (antibody, V domains shown)
VH: B1 VH with R30S
VL: B1 VL with L96I
B35: C5A (XPA23) VH S30G (antibody, V domains shown)
VH: B1 VH with R30G
VL: B1 VL
B36: C5A (XPA23) VL S93F (antibody, V domains shown)
VH: B1 VH with R30S
VL: B1 VL with S93F
B37: C5A (XPA23) VH F33E (antibody, V domains shown)
VH: B1 VH with R30S, F33E
VL: B1 VL
B38: C5A (XPA23) VH S30A (antibody, V domains shown)
VH: B1 VH with R30A
VL: B1 VL
B39: C5A (XPA23) VL L96W (antibody, V domains shown)
VH: B1 VH with R30S
VL: B1 VL with L96W
B40: C5A (XPA23) VH Y32N (antibody, V domains shown)
VH: B1 VH with R30S, Y32N
VL: B1 VL
B41: C5A (XPA23) VH F33K (antibody, V domains shown)
VH: B1 VH with R30S, F33K
VL: B1 VL

Legend:
[1] = target: binding partner of C5A (XPA23); test: Biacore
[2] = target: binding partner of C5A (XPA23); test: Biacore K-off

Binder	fold affinity vs original [1] [fold]	fold difference in affinity vs original [2] [fold]	fold difference in affinity vs original [1] [fold]
B1	0.1	0.1	–
B2	0.12	0.12	–
B3	–	3.83	–
B4	0.15	0.15	–
B5	–	0.55	–
B6	–	0.8	0.8
B7	–	0.88	–
B8	0.92	0.92	–
B9	–	1.08	–
B10	–	0.2	–
B11	1.33	1.33	–
B12	–	0.06	0.06
B13	–	0.28	–
B14	0.78	0.78	–
B15	–	0.81	0.81
B16	0.97	0.97	–
B17	–	0.91	0.91
B18	–	0.78	0.78
B19	–	5.49	–
B20	0.04	0.04	–
B21	0.73	0.73	–

Binder	fold affinity vs original [1] [fold]	fold difference in affinity vs original [2] [fold]	fold difference in affinity vs original [1] [fold]
B22	–	0.98	–
B23	1.11	1.11	–
B24	–	0.74	0.74
B25	0.77	0.77	–
B26	–	0.17	–
B27	0.77	0.77	–
B28	0.9	0.9	–
B29	–	0.26	–
B30	–	0.08	0.08
B31	0.04	0.04	–
B32	0.62	0.62	–
B33	0.68	0.68	–
B34	–	0.67	–
B35	–	0.13	0.13
B36	–	1.32	–
B37	0.86	0.86	–
B38	–	0.77	0.77
B39	–	4.49	–
B40	0.04	0.04	–
B41	0.85	0.85	–
